Assay results reported in patent publication US20130209365A1 (ACADEMIA SINICA, published 2013).

Molecular target: T1, BSA control protein (bovine, UniProt P02769 25-607)
T1 construct: also called bovine serum albumin
Experiment: phage ELISA

T1 sequence (P02769 25-607 limits assumed): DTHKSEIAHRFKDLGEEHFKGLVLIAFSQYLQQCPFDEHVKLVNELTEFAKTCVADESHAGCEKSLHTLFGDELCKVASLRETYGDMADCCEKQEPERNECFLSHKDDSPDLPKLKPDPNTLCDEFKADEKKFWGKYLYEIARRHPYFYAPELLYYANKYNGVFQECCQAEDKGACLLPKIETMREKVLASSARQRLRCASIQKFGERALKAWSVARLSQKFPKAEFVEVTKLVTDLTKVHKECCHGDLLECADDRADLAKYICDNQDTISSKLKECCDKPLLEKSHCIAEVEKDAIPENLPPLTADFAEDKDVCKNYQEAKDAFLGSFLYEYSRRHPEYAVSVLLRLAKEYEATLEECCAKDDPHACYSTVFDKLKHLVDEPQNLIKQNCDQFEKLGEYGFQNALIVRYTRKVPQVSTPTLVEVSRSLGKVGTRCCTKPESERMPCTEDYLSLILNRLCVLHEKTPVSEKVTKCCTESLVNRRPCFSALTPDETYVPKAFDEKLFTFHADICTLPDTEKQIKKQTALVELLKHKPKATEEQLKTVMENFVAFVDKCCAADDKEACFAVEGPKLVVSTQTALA

Row | Binder | binding result
1 | phage-displayed anti-c-Met scFv PC21 (scFv, not shown: large carriers, tested as whole phage; also called anti-c-Met phage clone 21) scFv: MAEVQLVESGPGLVKPSGTLSLKCDASAISMDSNYWWSWLRQPPGKGLEWIGEISHSGSTDYNPSLKSRATISIDKSKKQFFLRLKSVTAADTAVYYCAGLLSPLDAFDEWGQGTMVTVGGGGSGGGGSGGGGSDIQMTQSPSSLSASVGDRVTITCRASQRVATYLNWYQQKPGKAPNLLIYEASSLQSGVPSRFSGRRSGTDFTLTISSLQPEDFATYYCQQSYNTPYTFGQGTRLEIKR | no binding
2 | phage-displayed anti-c-Met scFv PC1 (scFv, not shown: large carriers, tested as whole phage; also called anti-c-Met phage clone 1) scFv: MAQVQLQQSGPGLVKPSQTLSLTCDISGDSVSSNSAAWNWIRQSPSRGLEWLGRTYYRSRWYNEYAVSVRGRISINAETSKNQFSLQLNSVTPEDTAIYYCARAGFCSGGNCYPGSEDAFDLWGQGTMVTVGGGGSGGGGSGGGGSDVVMTQSPPSLSVSVGDRVTITCRASQDITNDLNWYQQKPGKAPQLLIYHASELETGVPSRFSGSGFGTDFTLTISSLQPADIATYYCQQYDDLPLTFGGGTKVEIKR | no binding
